For this experiment, the target named is T1, human CD20 on Raji cells (human, UniProt P11836 1-297).
T1 construct: whole, on cells; also called Raji (CD20+/CD3-细胞)
T1 sequence (looked up): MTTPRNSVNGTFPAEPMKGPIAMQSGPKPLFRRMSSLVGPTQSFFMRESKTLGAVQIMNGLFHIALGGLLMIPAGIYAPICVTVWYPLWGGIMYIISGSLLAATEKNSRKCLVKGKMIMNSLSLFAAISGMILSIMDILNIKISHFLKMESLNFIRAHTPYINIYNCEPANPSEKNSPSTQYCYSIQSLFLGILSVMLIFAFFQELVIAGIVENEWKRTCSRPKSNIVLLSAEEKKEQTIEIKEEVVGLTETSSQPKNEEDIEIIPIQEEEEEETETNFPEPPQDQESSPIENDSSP
Description: FACS, simultaneous binding: Calcein-AM Raji and FarRed Jurkat cells mixed 1:1, percent double-positive cells.

B1: W3278-U2T3.F18R-1.uIgG4.SP (bispecific antibody)
chain 1: QVQLQQPGAELVKPGASVKMSCKASGYTFTSYNMHWVKQTPGRGLEWIGAIYPGNGDTSYNQKFKGKATLTADKSSSTAYMQLSSLTSEDSAVYYCARSTYYGGDWYFNVWGAGTTVTVSAASTKGPSVFPLAPCSRSTSESTAALGCLVKDYFPEPVTVSWNSGALTSGVHTFPAVLQSSGLYSLSSVVTVPSSSLGTKTYTCNVDHKPSNTKVDKRVGGGGSGGGGSQVQLVQSGAEVKKPGSSVKVSCKASGFAFTDYYIHWVRQAPGQGLEWMGWISPGNVNTKYNENFKGRVTITADKSTSTAYMELSSLRSEDTAVYYCARDGYSLYYFDYWGQGTLVTVLEDLKNVFPPEVAVFEPSEAEISHTQKATLVCLATGFYPDHVELSWWVNGKEVHSGVCTDPQPLKEQPALQDSRYALSSRLRVSATFWQNPRNHFRCQVQFYGLSENDEWTQDRAKPVTQIVSAEAWGRYGPPCPPCPAPEFLGGPSVFLFPPKPKDTLMISRTPEVTCVVVDVSQEDPEVQFNWYVDGVEVHNAKTKPREEQFNSTYRVVSVLTVLHQDWLNGKEYKCKVSNKGLPSSIEKTISKAKGQPREPQVYTLPPCQEEMTKNQVSLWCLVKGFYPSDIAVEWESNGQPENNYKTTPPVLDSDGSFFLYSRLTVDKSRWQEGNVFSCSVMHEALHNHYTQKSLSLSLG
chain 2: QVQLQQPGAELVKPGASVKMSCKASGYTFTSYNMHWVKQTPGRGLEWIGAIYPGNGDTSYNQKFKGKATLTADKSSSTAYMQLSSLTSEDSAVYYCARSTYYGGDWYFNVWGAGTTVTVSAASTKGPSVFPLAPCSRSTSESTAALGCLVKDYFPEPVTVSWNSGALTSGVHTFPAVLQSSGLYSLSSVVTVPSSSLGTKTYTCNVDHKPSNTKVDKRVESKYGPPCPPCPAPEFLGGPSVFLFPPKPKDTLMISRTPEVTCVVVDVSQEDPEVQFNWYVDGVEVHNAKTKPREEQFNSTYRVVSVLTVLHQDWLNGKEYKCKVSNKGLPSSIEKTISKAKGQPREPQVCTLPPSQEEMTKNQVSLSCAVKGFYPSDIAVEWESNGQPENNYKTTPPVLDSDGSFFLVSRLTVDKSRWQEGNVFSCSVMHEALHNHYTQKSLSLSLG
chain 3: QIVLSQSPAILSASPGEKVTMTCRASSSVSYIHWFQQKPGSSPKPWIYATSNLASGVPVRFSGSGSGTSYSLTISRVEAEDAATYYCQQWTSNPPTFGGGTKLEIKRTVAAPSVFIFPPSDEQLKSGTASVVCLLNNFYPREAKVQWKVDNALQSGNSQESVTEQDSKDSTYSLSSTLTLSKADYEKHKVYACEVTHQGLSSPVTKSFNRGEC
light: DIVMTQSPDSLAVSLGERATINCKSSQSLLNSRTRKNYLAWYQQKPGQPPKLLIYWASTRQSGVPDRFSGSGSGTDFTLTISSLQAEDVAVYYCTQSHTLRTFGGGTKVEIKPDIQNPDPAVYQLRDSKSSDKSVCLFTDFDSQTQVSQSKDSDVYITDKCVLDMRSMDFKSNSAVAWSQKSDFACANAFQNSIIPEDTFFPSPESS
notes: WuXiBody format F18R-1, human IgG4 with S228P and knobs-into-holes; also called WBP3278 lead Ab; W3278 lead Ab
Turning to B1, the binding result was “binds”.
